From the nanobody polyreactivity screen of Harvey et al. (2022)

Experiment: yeast display, Sf9 membrane polyspecificity reagent, FACS + sequencing; frameworks hold sequencing errors
In short: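 A synthetic nanobody library was expressed on Saccharomyces cerevisiae BJ5465 by galactose induction for 36–48 hours. The library was stained for 1 hour at 4 °C with 10% biotinylated, detergent-solubilized Sf9 membrane reagent and enriched with streptavidin microbeads before FACS. Low and high (top ~1%) gates were set on anti-HA fluorescence for expression and streptavidin fluorescence for reagent binding, and each polyreactivity label reflects the gate of origin.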
For “QVQLVESGGGLVQAGGSLRLSCAASGSTFPYNAMGWYRPAPGKERELVAAITAGGARTYYADSVKGRFTISRDNAKNTVYLQMNSLKPEDTAVYYCNKVKATSYRYYYWGQGTQVTVSS”, the “polyreactivity (PSR sort gate)” value was “high polyreactivity”.
For “QVQLVESWGGLVQAGGSLRLSCAASGFIFQTNVMGWYRQAPGKERELVAAISSGDSTYYADSVKGRFTISRDNAKNTVYLQMNSLKPEDTAVYYCAADVLGTTTTVGGFNYWGQGTQVTVSS”, the “polyreactivity (PSR sort gate)” value was “low polyreactivity”.
With “QVQLVESGVGLVQAGGSLRLSCAAYGSTFVSNAMGWDRQAPGKERELVAAISTSGGSTYYADSVKGRFTISRDNAKNTVYLQMNSLKPEDTAVYYCAKLLARGFRIWQDYDYWGQGTQVTVSS” the “polyreactivity (PSR sort gate)” value was “low polyreactivity”.
For “QVQLVESGGGLVQAGGSLRLSCAASGFTFSSYTMGWYRQAPGKEREFVAAISRRTGRTYYADSVKGRFTISRDYAKNTVYLQMNSLKPEDTAVFYCAADLYYYGFFWDFGDGFDYWGQGTQVTVSS”, the “polyreactivity (PSR sort gate)” value was “high polyreactivity”.
For “QVQLVESGGGLVQAGGSLRLSCAASGSTFGWYAMGWYRQAPGKERELVASISRSGGRTFYADSVKGRFTISRDNAKNTVYLQMNRLKPEDTAVYYCAADALIYYKGSPDYYWGQGTQVNVSS”, the “polyreactivity (PSR sort gate)” value was “high polyreactivity”.
In the case of “QVQLVESGGGLVQAGGSLRLSCAASGSIFGANAMGWYRQAPAKEWELVAAITRGGRTNYADSVKGRFTISRDNAKISVYLQMNSLKPEDTAVYYCNAAWGTGRWAGYISGGDWGQGTHVTVSS”, the “polyreactivity (PSR sort gate)” value is reported as “high polyreactivity”.
With “QVQLVESGGGLVQAGGSLRLSCDASGSIFFSYAMGWYRQAPGTEREFVAAINSDDASTYADSVKGRFTISRDNAKNTVYLQMNSLKPEDTAVYYCADSFLWSWYDYWGQGTQVTVSS” the “polyreactivity (PSR sort gate)” value was “low polyreactivity”.
For “QLQLVESGGGLVQAGGSLRISCAASGFTFRYYAMGWYRQAPGKERKFVAGIDFGAITNYADSVKGRFTISRDNAKNTEYLQMSSLKPEDTAVYYCAAGVYDWYAYDYWGQGTQVTVSS”, the “polyreactivity (PSR sort gate)” value was “high polyreactivity”.
With “QVQLVESGVGLVQARGSLRLSSAASGRIFDRNAMGWYRQSPGNERELVAAIDDSGGDTSYADSVKGRFTISRDNAKNTVYLQMTSLKPEDTAVYYCNAVKQRSSIFDYWGQGTQLTVSS” the “polyreactivity (PSR sort gate)” value was “low polyreactivity”.
For “QVQLVESGGGLVQAGGSLRLSCAASGSIFHINAMGWYRQAPGKERELVADISQRGGSTYYADSVKGRVTISRDNAKNTVYLQMNSLKPEDTAVYYCAVVHVFYAVSYFSFYTYEYWGQGTQVTVSS”, the “polyreactivity (PSR sort gate)” value was “low polyreactivity”.
In the case of “QVHLVESGGGLVQAGGSLRLSCAASGSIFSGNTMGWYRQAPGKERELVAAISGGGSTNYADSVKGRFTISRDNAKNTVYLQMNSLKPEDTAVYYCAKDWSLGASRMDYWGQGTQVTVSS”, the “polyreactivity (PSR sort gate)” value is reported as “low polyreactivity”.
With “QVQLGESGGGLVQAGGSLRLSCAASGSIFRSYAMGWYRQAPGKERELVAAISWRGGRTYYADSVKGRFTISRDNAKNTVYLQMNSLKPEDTAVYYCAARNRAQQGTRDHDYWGQGTQVTLSS” the “polyreactivity (PSR sort gate)” value was “high polyreactivity”.
With “QVQLVESGGGLVQAGGSLRLSCAASGIIFLDYVMGWYRQAPGKERELVAAINSGGSTYYADSVKGRFTISRDNAKNTVYLQMNSLKPEDTAVYYCAADDYYKFDYWGQGTQVSVSS” the “polyreactivity (PSR sort gate)” value was “low polyreactivity”.
In the case of “QVQLVESGGGLVQAGGSLRISCAASGSIFYGYAMGWYRQAPGKERELVAAITWSGGSTYYADSVKGRFTISRDNAKNTVYLQMNSLNPEDTAVYFCNAVSTRFRVRTSDYWGQGTQVTVSS”, the “polyreactivity (PSR sort gate)” value is reported as “high polyreactivity”.
With “QVHLVESGGGLVQAGGSLRLSCAASGSIFLWYTMGWYRQAPGKERELVAAISRTGGSTYYADSVKGRFTISRDNAKNTVYLQMNSLKPEDTAVYYCAASLYSITRARYDYWGQGTQVTVSS” the “polyreactivity (PSR sort gate)” value was “high polyreactivity”.
In the case of “QVPLVESGGGLVQAGGSLRLSCAASGRTFPSNMGWYRQAPGKERELVAAISWRGGSTNYADSVKGRFTISRDNAKNTVYLQMNSLKPEDTAVYYCNARYNTQRYRFLVQGDYWGQGTQVTVSS”, the “polyreactivity (PSR sort gate)” value is reported as “high polyreactivity”.
With “QVQLVESGGGLVQAGGILRLSCAASGQIFTYYVMGWYRQAPGKERELVAAIDWDSGSTSYADSLKGRFTISRDNAKNTVYLQMNSLKPEDTAVYYCAADEVLSGYYTLDYWGQGTQVTVSS” the “polyreactivity (PSR sort gate)” value was “low polyreactivity”.
With “QVQLVESGGGLVQAGGSLRLSCAASGITFWQNTMGWYRQAPGKERELVAAISWTGGRTYYADSVKGRFTISRDNAKNTVYLQMNSLKPEDTAVYYCNTGHEEDEDDYWGQGTQVTVSS” the “polyreactivity (PSR sort gate)” value was “low polyreactivity”.
With “QVQLVESGGGLVQAGGSLRLSCAASGSIFTSYAMGWSRQAPGKERELVAAITSGGSTNYADSVKGRFTISRDNAKNTVYLQMNSLKPEDTAVYYCNAKWYWYLTRDAYRYRYTYDYWGQGTQVTVSS” the “polyreactivity (PSR sort gate)” value was “low polyreactivity”.
For “QVQLVDSGGGLVQAGGSLRLSCAASGSIFLGYAMGWYRQAPGKVREFVAAITWSGGSTYYADSVKGRFTISRDIAKNTVYLQMNSLKQEDTAVYYCAVEIWIPTWYGLSGEYDYWGQGTQVTVSS”, the “polyreactivity (PSR sort gate)” value was “low polyreactivity”.
With “QVQLVESGGDLVQAGGSLRLSCAASGGIFQKYVMGWYRQAPGKERELVARITSVGSTYYADSVKGRFTISRDNAKNTVYLQMNSLKPVDTAVYYCNAELYRRSQGYRFTAFDYWGQGTQVTVSS” the “polyreactivity (PSR sort gate)” value was “low polyreactivity”.
For “QVQLVESGGGLVQAGGSLRISCAPSGFTFGHYAMGWYRQAPGKERELVAAISYSGVRTYYADSVKGRFTISRDNAKNTVYLQMNSLKPEDTAVYYCNKYPAHYQTRRYDYWGQGTQVTVSS”, the “polyreactivity (PSR sort gate)” value was “high polyreactivity”.
With “QVQLVESGGGLVQAGGSLRLSCAASGSTFYTNPMGWYRQAPGKEREFVAAISGSGSSTYADSVKGRFTISRDNAKNTVYLQMNSLKPEDTAVYYCAADWFILRTDYYWGQGTQVTVSS” the “polyreactivity (PSR sort gate)” value was “low polyreactivity”.
With “QVQLQECGGGLVQAGGSLRLSCAASGTFSNSVKWLYCHAPGKEREFVATIGVGGSTNYADSVKGRFTISRDNAKYTVYLQMNSLKPEDTAVYHCAAYGAASNFHYYRGQGTQVTVSS” the “polyreactivity (PSR sort gate)” value was “low polyreactivity”.
With “QVQLVESGGGLVQAGGSLRLSCAASGSIFVPYAMGWYRQAPGKERELVAAISNGDSTYYADSVKGRFTISRDNGKNTVYLQMNSLNPEDTAVYYCAAPYAGWRDGGDYWGQGTQVTVSS” the “polyreactivity (PSR sort gate)” value was “low polyreactivity”.
With “QVQLIESGGGLVQAGGSLRLSCAASGSTFERNTMGWYRQAPGKERELVAAITSGGRTYYADSVKGRFTISRDNAKNTVYLQMNSLKPEDTAVYYCAARLGRHVSYWRSGWTNMDYWGQGTQVTVSS” the “polyreactivity (PSR sort gate)” value was “high polyreactivity”.
For “QVQLVESGGGLVQAGGSLRLSCAASGRIFSTYAMGWYRQAPGKERELVAAISYSGTTTYYADSVKGRFTISRDNAKNTVYLQLNRLKPEDTAVYYCAAYRYSSWAYGRDYYWGQGTQVTVSS”, the “polyreactivity (PSR sort gate)” value was “high polyreactivity”.
In the case of “QVQLVESGGGLVQAGGSLRLSCAASGFIIDGYAMGWYRQAPGKERELVAVISQRGSNTYYADSVKGRFTISRDNAKNTVYLQMNSLKPEDTAVYYCAARYKQGDSTGGRMNYWGQGTQVTVSS”, the “polyreactivity (PSR sort gate)” value is reported as “high polyreactivity”.
In the case of “QVQLVESGGGLVQAGGSLRLSCAASGIILYRNVLGWYRQAPGKERELVASINRGSDSTYYADSVKGRFTISRDNEKNTVYLHMNSLKPEDTAVYYCAAVYVYGVEMDYWGQGTQVTVSS”, the “polyreactivity (PSR sort gate)” value is reported as “low polyreactivity”.
In the case of “QVQLVESGGGLVQAGGSLRLSCAASGITFYKYVMGWYRQAPGKETELVAAISSVGSTYYADSVKGRFTISRDNAKNTVYLQMNSLKPEDTAVYYCAAKYWKCYHYGFGYWGQGTQVTVSS”, the “polyreactivity (PSR sort gate)” value is reported as “high polyreactivity”.
In the case of “QVQLVESGGGLVQAGGSLRLSCAASGSIFDQNAMVWYRQAPGKERELVAAITRGGSTKYADSVKGRFTISRDNAKNTVYLQMNSLKPEDTAVYYCARTARRRYQPYEYWGQGTQVTVSS”, the “polyreactivity (PSR sort gate)” value is reported as “low polyreactivity”.
In the case of “QVQLVESGGGLVQAGGSLRLSCAASGRTFAAYAMGWYRQAPGKERELVAAIRRGGTTNYADSVKGRFTISRDNAKNTVYLQMNSLKPEDTAVYYCAALAPYSRSWVTYDYWGQGSQVTVSS”, the “polyreactivity (PSR sort gate)” value is reported as “low polyreactivity”.
For “QVQLVESGGGLVQAGGSLRLSCAASGNTFDVYVMGWYRQAPGKERELVAAINKGGGRTYYADSVKGRFTISRDNAKNTVYLQMNSLKPEDTAVYYCAAVSPKYESSYYYWGQGTQVTVSS”, the “polyreactivity (PSR sort gate)” value was “high polyreactivity”.
For “QVQLVESGGGLVQAGGTLRLSCAASGFTFTSNAMGWYRQEPGKERELVAAITSSGGITYYADSVKGRFTISRDNAKNTVYLQMNSLKPEDNAVYYCAASISSYNSPGYGYWGQGTQVTVSS”, the “polyreactivity (PSR sort gate)” value was “low polyreactivity”.
For “QVHLVESGGGLVQAGGILRLSCAASGRTFRYYAMGWYRQAPGKERELVAAISSGGSTNYADSVKGRFTISRDNAKNTVYLQMNSLKPEDSAVYYCADLWSGNKFNYWGQGTQVTVSS”, the “polyreactivity (PSR sort gate)” value was “low polyreactivity”.
With “QVQLQESGAGLEQAGGSLRMSCAASGYISDIVTMGWYRQAPGKEREFVATIVVGSTTNYADSVKGRFTISRDNANNSVYLQPESGRYRGVLLRGWLLAVGKFTYWGQGTQETVSS” the “polyreactivity (PSR sort gate)” value was “low polyreactivity”.
For “QVQLVESGGGLVQAGGSLRLSCAASGSTLYVNAMGCYIQAPGKERELVAAISSGGGRTYYADSVKGRFTISRDNAKNTVYLQMNSLKPEETAVYYCARKPYYPYDYWGQGTLVTVSS”, the “polyreactivity (PSR sort gate)” value was “low polyreactivity”.
In the case of “QVQLVESGGGLVQAGGSLRLSCAASGRTFARYALGWYRQAPGKERELVAAISWSGGSTYYADSVKGRFTISRDNAKNTVYLQMNSLKPEDTAVDYCAAGYGARSAKFDVYGTNEGDYWGQGTQVTVSS”, the “polyreactivity (PSR sort gate)” value is reported as “high polyreactivity”.
In the case of “QVQLVESGGGLVQAGGSLRLSCAASGRTFRRYAMGWYRQAPGKERELVASISTSGGSTYADSVKGRFTISRDNAKNTVYLQMNSLKPEDTAVYYCAVRSPRYVRNGDYWGQGTQVTVSS”, the “polyreactivity (PSR sort gate)” value is reported as “high polyreactivity”.
In the case of “QVLLQESGGLVQAGCSLRMSCAASGSISTALSMGWYRQAPGKERELVATISDGASTNYADSVKGRFTISRVNAKNTVYLQMNSLKPEDTEVYYCAAQSQYRPDHRYWGQGTQVTVSS”, the “polyreactivity (PSR sort gate)” value is reported as “high polyreactivity”.
With “QVQLVESGGGLVQAGGSLRLSCAASASTFAGYVMGWYRPAPGKERELVAAISVSGGSTDYADSVKGRFTISRDNAKNTVYLQMNSLKPEDTAVYYCAAVYVRNQWWRNYYWGQGTQVTVSS” the “polyreactivity (PSR sort gate)” value was “low polyreactivity”.
In the case of “QVQLVESGAGLVQAGGSLLLSCAASGYIFDVYDMGWYRQAPGKERELVAAITDYADSVKGRFTISRDNAKNTVYLQMNSQKPEDTAVYYCAADTDVLKGTTGFEYWGQGTQVTVSS”, the “polyreactivity (PSR sort gate)” value is reported as “low polyreactivity”.
With “QVQLVESGGGLVQAGGSLRLSCAASGSILVYYAMGWYRQAPGKEREFVAAITRSGGSTYYADSVKGRFTISRDNAKNTVYLQMNSLKPEDTAVYYCNARDVVWKRFTRYDFWGQGTQVTVSS” the “polyreactivity (PSR sort gate)” value was “high polyreactivity”.
